Target: F-actin (source not stated for this experiment: rabbit muscle or yeast) (not stated (rabbit muscle or yeast actin purified)) (UniProt P68135)

Sequence of Vps1 (yeast dynamin), wild type, recombinant His tag fusion (P21576 whole entry, the tested form may be a part): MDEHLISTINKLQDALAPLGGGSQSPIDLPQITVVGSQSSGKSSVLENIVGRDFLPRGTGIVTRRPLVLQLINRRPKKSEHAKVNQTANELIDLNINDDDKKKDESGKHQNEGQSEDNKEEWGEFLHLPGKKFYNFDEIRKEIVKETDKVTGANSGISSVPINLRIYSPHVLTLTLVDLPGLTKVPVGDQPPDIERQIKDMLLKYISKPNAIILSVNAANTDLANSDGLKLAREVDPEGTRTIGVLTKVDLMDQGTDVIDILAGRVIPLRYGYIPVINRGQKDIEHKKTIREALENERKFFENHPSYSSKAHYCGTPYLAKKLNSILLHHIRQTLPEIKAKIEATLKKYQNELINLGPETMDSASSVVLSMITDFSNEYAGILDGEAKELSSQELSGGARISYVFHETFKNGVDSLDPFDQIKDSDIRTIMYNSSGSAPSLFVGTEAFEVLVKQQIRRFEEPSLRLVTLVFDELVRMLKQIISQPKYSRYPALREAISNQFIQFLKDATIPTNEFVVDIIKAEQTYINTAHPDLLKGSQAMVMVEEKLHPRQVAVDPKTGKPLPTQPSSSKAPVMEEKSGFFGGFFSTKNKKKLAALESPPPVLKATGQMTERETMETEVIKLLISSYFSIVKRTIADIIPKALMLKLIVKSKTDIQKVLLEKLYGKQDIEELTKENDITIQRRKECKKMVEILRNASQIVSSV

EM: proportion of Vps1 structures that are double rings after incubation with actin | EM: proportion of actin in bundles of three or more filaments in the presence of Vps1 | EM: proportion of actin in bundles of two or more filaments in the presence of Vps1 (23% without) | EM: proportion of actin filaments in bundles of three or more in the presence of Vps1 RR-EE | Substance
55% | 58% | > 80% |  | Vps1 (yeast dynamin), wild type, recombinant His tag fusion (from UniProt P21576 1-704) (natural protein)
 |  |  | 8% | Vps1 RR457,458EE, recombinant His tag fusion (from UniProt P21576 1-704) (natural protein)
